Test results from patent US20160185837A1 (Medimmune Limited, priority 2013, published 2016).
Positions count from the first letter of the chain named. Read-outs that look alike come from different tables or passages of the source.

T1: rat GIP receptor (rGIPr) (Rattus norvegicus, UniProt P43219)
T1 construct: expressed in transfected cells; host or cells: HEK293s or CHO cells
T1 sequence (P43219 19-455): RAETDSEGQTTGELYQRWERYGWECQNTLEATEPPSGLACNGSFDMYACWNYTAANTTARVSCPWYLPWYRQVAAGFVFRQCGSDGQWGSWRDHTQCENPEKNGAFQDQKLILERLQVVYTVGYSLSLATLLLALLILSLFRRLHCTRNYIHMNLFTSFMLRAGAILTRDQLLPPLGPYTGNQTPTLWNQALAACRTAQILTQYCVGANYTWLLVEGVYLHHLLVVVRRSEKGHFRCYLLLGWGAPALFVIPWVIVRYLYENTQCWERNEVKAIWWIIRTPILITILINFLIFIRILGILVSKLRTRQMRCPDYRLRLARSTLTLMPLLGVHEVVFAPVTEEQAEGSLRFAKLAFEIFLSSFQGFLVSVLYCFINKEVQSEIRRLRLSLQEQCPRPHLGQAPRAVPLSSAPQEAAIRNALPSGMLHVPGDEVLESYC

T2: rat GLP-1 receptor (rGLP-1r) (Rattus norvegicus, UniProt P32301)
T2 construct: expressed in transfected cells; host or cells: HEK293s or CHO cells
T2 sequence (P32301 22-463): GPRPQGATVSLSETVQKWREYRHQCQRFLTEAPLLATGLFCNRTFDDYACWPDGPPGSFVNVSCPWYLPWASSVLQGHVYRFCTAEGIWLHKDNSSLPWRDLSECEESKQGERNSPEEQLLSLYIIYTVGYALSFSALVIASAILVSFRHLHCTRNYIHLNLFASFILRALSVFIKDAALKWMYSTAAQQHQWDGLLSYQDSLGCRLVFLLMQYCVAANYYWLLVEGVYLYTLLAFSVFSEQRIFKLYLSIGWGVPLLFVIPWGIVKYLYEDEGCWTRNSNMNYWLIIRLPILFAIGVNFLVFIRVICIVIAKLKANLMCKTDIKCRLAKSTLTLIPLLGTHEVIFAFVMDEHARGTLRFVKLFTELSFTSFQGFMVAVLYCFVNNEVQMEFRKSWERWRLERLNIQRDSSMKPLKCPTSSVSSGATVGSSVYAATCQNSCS

T3: human GIP receptor (hGIPr) (Homo sapiens, UniProt P48546)
T3 construct: expressed in transfected cells
T3 sequence (P48546 22-466): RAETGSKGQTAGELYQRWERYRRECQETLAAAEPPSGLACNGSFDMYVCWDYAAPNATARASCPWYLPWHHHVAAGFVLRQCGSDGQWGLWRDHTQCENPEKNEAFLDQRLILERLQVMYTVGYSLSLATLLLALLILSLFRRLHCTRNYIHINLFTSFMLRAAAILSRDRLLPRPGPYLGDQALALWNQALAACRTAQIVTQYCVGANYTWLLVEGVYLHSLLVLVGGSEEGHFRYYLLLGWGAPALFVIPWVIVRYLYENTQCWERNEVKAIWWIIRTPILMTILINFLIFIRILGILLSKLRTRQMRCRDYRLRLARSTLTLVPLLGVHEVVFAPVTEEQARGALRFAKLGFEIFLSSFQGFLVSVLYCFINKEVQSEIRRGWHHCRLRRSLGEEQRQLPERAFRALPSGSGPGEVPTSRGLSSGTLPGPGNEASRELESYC

T4: mouse GLP-1 receptor (mGLP-1r) (Mus musculus, UniProt O35659)
T4 construct: expressed in transfected cells; host or cells: HEK293s or CHO cells
T4 sequence (O35659 22-463): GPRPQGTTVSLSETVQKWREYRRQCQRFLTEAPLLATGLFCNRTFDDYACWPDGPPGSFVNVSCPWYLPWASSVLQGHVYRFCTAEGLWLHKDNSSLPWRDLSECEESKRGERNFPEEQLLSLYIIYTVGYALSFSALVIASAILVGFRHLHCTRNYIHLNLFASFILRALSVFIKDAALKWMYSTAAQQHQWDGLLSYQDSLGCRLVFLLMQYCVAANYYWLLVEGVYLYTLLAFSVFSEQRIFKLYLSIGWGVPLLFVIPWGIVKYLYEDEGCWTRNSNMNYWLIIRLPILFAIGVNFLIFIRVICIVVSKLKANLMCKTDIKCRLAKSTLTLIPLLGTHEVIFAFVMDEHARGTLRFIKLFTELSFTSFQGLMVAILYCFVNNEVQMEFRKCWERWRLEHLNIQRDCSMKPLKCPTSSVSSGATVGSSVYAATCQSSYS

T5: mouse GIP receptor (mGIPr) (Mus musculus, UniProt Q0P543)
T5 construct: expressed in transfected cells; host or cells: HEK293s or CHO cells
T5 sequence (Q0P543 19-460): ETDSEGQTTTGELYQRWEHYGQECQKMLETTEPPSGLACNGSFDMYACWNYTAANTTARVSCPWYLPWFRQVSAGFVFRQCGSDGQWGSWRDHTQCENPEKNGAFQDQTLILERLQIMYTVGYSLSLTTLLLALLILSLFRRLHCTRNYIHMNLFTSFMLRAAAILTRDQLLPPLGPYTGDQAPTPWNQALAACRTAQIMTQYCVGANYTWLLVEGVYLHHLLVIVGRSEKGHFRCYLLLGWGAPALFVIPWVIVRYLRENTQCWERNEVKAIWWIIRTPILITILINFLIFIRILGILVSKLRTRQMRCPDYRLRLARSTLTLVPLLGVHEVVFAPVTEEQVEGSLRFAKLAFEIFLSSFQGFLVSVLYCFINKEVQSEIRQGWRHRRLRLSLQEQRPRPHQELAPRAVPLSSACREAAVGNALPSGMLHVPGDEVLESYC

B1: IP351 (protein)
chain: YSEGTFISDYSIAMDKIHQQDFVNWLLAQKPSSGAPPPSGGGGSGGGGSGGGGSGGGGSACPPC
B2: IP373 (protein)
chain: YSEGTHTSDFSKLLERQAIDEFIAWLLKGGAAAGGSGSTASSGSGSATGGGGAATHTCPPC
B3: IP401 (protein)
chain: B2 chain with F10L
B4: IP375 (protein)
chain: B2 chain with D9L
B5: IP376 (protein)
chain: B2 chain with H6F, D9L
B6: IP321 (protein)
chain: YSEGTFISDYSIAMDKIHQQDFVNWLLAGGAAAGGSGSTASSGSGSATGGGGAATHTCPPC
B7: IP246: Fc fusion, IgG1-TM, SEQ ID NO:116; agonist peptide YSEGTFTSDYSKLLEGQAAKLFIEWLVKGP (protein)
chain: YSEGTFTSDYSKLLEGQAAKLFIEWLVKGPAAAGGSGSTASSGSGSATGGGGAATHTCPPCPAPEF
modifications: also: Fc fusion, IgG1-TM
notes: agonist peptide YSEGTFTSDYSKLLEGQAAKLFIEWLVKGP
B8: IP247: Fc fusion, IgG1-TM, SEQ ID NO:117; agonist peptide YSEGTFTSDYSKLLEKIHQQLFIEWLVKGP (protein)
chain: B7 chain with G16K, Q17I, A18H, A19Q, K20Q
modifications: also: Fc fusion, IgG1-TM
notes: agonist peptide YSEGTFTSDYSKLLEKIHQQLFIEWLVKGP

Legend:
Format in all cases: cell-based
[1] = target: T1, rat GIP receptor (rGIPr); test: BSA-cAMP assay, cells expressing rat GIP receptor; settings: BSA-cAMP assay
Description: (§1) One basic cAMP assays was performed, differing in the medium used for the assay, the “BSA-cAMP assay”:
(§2) BSA-based assay medium: 0.1% bovine serum albumin (BSA) in
(§3) In certain aspects, the assay can also be carried out in medium supplemented with serum albumin that corresponds to the receptor being tested, e.g., human serum albumin for testing cAMP activity at hGIPr or hGLP-1r, rat serum albumin for testing cAMP activity at rGIPr or rGLP-1r, and so on. […] All sample dilutions were made in duplicate.
(§4) A frozen cryo-vial of cells expressing the receptor of interest was thawed rapidly in a water-bath, transferred to pre-warmed assay media and spun at 240×g for 5 minutes. Cells were re-suspended in assay buffer at an optimized concentration (e.g., hGLP-1r and hGIPr cells at 0.5×10^5 cells/ml).
(§5) To this, 5 μL cell suspension was added and the plates incubated at room temperature for 30 minutes.
(§6) cAMP levels were measured using a commercially available cAMP dynamic 2 HTRF kit (Cisbio, Cat #62AM4PEJ), following the two step protocol as per manufacturer's recommendations. In brief; anti-cAMP cryptate (donor fluorophore) and cAMP-d2 (acceptor fluorophore) were made up separately by diluting each 1/20 in conjugate & lysis buffer provided in the kit. 5 μL anti-cAMP cryptate was added to all wells of the assay plate, and 5 μL cAMP-d2 added to all wells except non-specific binding (NSB) wells, to which conjugate and lysis buffer was added. […] Data was transformed to % Delta F as described in manufacturer's guidelines and then transformed to percent activation of maximal native agonist response and analysed by 4-parameter logistic fit to determine EC50 values.
(§7) We used unconstrained 4 parameter logistic fit of data, curve mid-point to determine EC50. This was tested on two occasions, not two batches.
(§8) In order to be able to carry out in vivo studies in rodents, IP088 was tested for potency against the mouse receptors mGIPr and mGLP-1r as well as the rat receptors rGIPr and rGLP-1r, using cells expressing the respective receptors in the cAMP assay described above.

[2] = target: T6, human glucagon receptor (GCGr) (Homo sapiens, UniProt P47871); test: BSA-cAMP assay, cells expressing human glucagon receptor
T6 construct: expressed in transfected cells; host or cells: HEK293s or CHO cells
T6 sequence (P47871 26-477): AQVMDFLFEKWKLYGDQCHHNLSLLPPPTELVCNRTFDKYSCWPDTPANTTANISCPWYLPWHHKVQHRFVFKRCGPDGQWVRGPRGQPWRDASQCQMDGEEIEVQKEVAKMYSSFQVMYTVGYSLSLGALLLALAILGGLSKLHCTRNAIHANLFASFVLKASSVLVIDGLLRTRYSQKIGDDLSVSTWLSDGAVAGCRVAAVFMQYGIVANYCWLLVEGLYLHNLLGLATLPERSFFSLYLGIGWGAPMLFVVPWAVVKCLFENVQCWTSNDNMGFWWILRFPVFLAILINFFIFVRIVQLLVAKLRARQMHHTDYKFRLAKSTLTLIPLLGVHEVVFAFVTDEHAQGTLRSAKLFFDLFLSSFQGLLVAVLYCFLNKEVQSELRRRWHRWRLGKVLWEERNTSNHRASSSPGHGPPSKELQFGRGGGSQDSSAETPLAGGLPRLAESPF
Description: as §1, §2, §3, §4, §5, §6, §7

[3] = target: T2, rat GLP-1 receptor (rGLP-1r); test: BSA-cAMP assay, cells expressing rat GLP-1 receptor; settings: BSA-cAMP assay
Description: as §1, §2, §3, §4, §5, §6, §7, §8

[4] = target: T7, human GLP-1 receptor (hGLP-1r) (Homo sapiens, UniProt P43220); test: BSA-cAMP assay, cells expressing human GLP-1 receptor; settings: BSA-cAMP assay
T7 construct: expressed in transfected cells
T7 sequence (P43220 24-463): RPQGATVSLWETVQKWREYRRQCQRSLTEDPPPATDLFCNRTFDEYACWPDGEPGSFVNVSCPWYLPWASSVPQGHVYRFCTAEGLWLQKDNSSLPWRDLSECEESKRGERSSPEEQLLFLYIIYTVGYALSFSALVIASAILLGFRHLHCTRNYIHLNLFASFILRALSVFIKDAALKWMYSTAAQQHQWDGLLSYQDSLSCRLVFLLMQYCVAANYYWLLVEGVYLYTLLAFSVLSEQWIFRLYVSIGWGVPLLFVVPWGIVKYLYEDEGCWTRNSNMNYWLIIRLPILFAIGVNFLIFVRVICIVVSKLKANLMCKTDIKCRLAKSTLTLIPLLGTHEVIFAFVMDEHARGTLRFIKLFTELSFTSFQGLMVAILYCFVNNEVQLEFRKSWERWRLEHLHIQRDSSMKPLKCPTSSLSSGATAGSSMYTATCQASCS
Outline: (§9)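 EC50 came from an unconstrained 4-parameter logistic fit of HTRF cAMP data expressed as percent of maximal native agonist activation, tested on two occasions. Thawed receptor-expressing cells (hGLP-1r, hGIPr at 0.5×10^5 cells/ml) treated 30 min at room temperature in 0.1% BSA-containing medium; two distinct hGIPr lines.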

[5] = target: T3, human GIP receptor (hGIPr); test: BSA-cAMP assay, cells expressing human GIP receptor; settings: BSA-cAMP assay
Outline: as §9

[6] = target: T4, mouse GLP-1 receptor (mGLP-1r); test: BSA-cAMP assay, cells expressing mouse GLP-1 receptor; settings: BSA-cAMP assay
Description: as §1, §2, §3, §4, §5, §6, §7, §8

[7] = target: T5, mouse GIP receptor (mGIPr); test: BSA-cAMP assay, cells expressing mouse GIP receptor; settings: BSA-cAMP assay
Description: as §1, §2, §3, §4, §5, §6, §7, §8

[8] = Batch 1, read-out: rGIPr cAMP activity EC50
[9] = Batch 1, read-out: hGCGr cAMP activity EC50
[10] = Batch 1, read-out: rGLP1r cAMP activity EC50
[11] = Batch 1, read-out: hGLP1r cAMP activity EC50
[12] = Batch 1, read-out: hGIPr cAMP activity EC50
[13] = Batch 1, read-out: mGLP1r cAMP activity EC50
[14] = Batch 1, read-out: mGIPr cAMP activity EC50
[15] = read-out: cAMP activity rGIPr (EC50)
[16] = batch 1 unless a batch is given, read-out: cAMP activity hGCGr (EC50)
[17] = read-out: cAMP activity rGLP1r (EC50)
[18] = batch 1 unless a batch is given, read-out: cAMP activity hGLP1r (EC50)
[19] = batch 1 unless a batch is given, read-out: cAMP activity hGIPr (EC50)
[20] = read-out: cAMP activity mGLP1r (EC50)
[21] = read-out: cAMP activity mGIPr (EC50)

Row | Molecule | EC50 [1, 8] [nM] | EC50 [2, 9] [nM] | EC50 [3, 10] [nM] | EC50 [4, 11] [nM] | EC50 [5, 12] [nM] | EC50 [6, 13] [nM] | EC50 [7, 14] [nM] | EC50 [1, 15] [nM] | EC50 [2, 16] [nM] | EC50 [3, 17] [nM] | EC50 [4, 18] [nM] | EC50 [5, 19] [nM] | EC50 [6, 20] [nM] | EC50 [7, 21] [nM]
1 | B1 | 0.0063 | 130 | 210 | 110 | 0.0036 | 820 | 0.0098 | – | – | – | – | – | – | –
2 | B2 | 0.035 | > 6790 | 0.9 | 0.72 | 0.0054 | 9.2 | 3.2 | – | – | – | – | – | – | –
3 | B3 | 0.014 | 3100 | 0.073 | 0.35 | 3.5 | 13 | 3.6 | – | – | – | – | – | – | –
4 | B4 | 0.07 | > 11700 | 3.9 | 4 | 0.078 | 49 | 0.65 | – | – | – | – | – | – | –
5 | B5 | 0.13 | > 7430 | 1.3 | 2.4 | 0.083 | 21 | 0.55 | – | – | – | – | – | – | –
6 | B6 | 0.0079 | 24 | 22 | 72 | 0.0096 | 330 | 0.017 | – | – | – | – | – | – | –
7 | B7 | – | – | – | – | – | – | – | 10 | > 1400 | 0.072 | 0.65 | 2.2 | 3.2 | 260
8 | B8 | – | – | – | – | – | – | – | 0.03 | > 420 | 11 | 63 | 0.019 | 280 | 2.3
